Data as given in paper PMC5906637.
pKd, pKi: −log10 of the molar value.

Legend:
[1] = target: FXa
[2] = target: human thrombin (human); test: enzyme inhibition kinetics (amidolytic activity); thrombin (36.6 nM; 3.0 µl, 10 NIH/ml) with chromogenic substrate T1637 or FXa (0.13 µM) with F3301, lunathrombase 0-0.4 µM; Michaelis-Menten fit; competitive model for thrombin, non-competitive model for FXa
[3] = target: FXa; test: as above
[4] = target: human fibrinogen (human) (UniProt P02671); test: other fluorescence titration; thrombin, FXa or fibrinogen (0.2 µM each) incubated with lunathrombase (0.2-1.0 µM in the methods, 0.2-1.4 µM in the legend) for 3 min at room temperature; excitation 280 nm, emission 300-425 nm; one site saturation binding curve
[5] = target: human thrombin (human); test: as above
[6] = target: FXa; test: as above

inhibition of prothrombin (1.4 µM) activation by FXa (0.13 µM) pre-incubated with lunathrombase (0.2 µM), SDS-PAGE [1]: 100%
pKi [2]: 7.57
pKi [3]: 7.99
pKd [4]: 6.26
pKd [5]: 6.60
pKd [6]: 5.72
Substance: lunathrombase (enzyme)
